How the values were obtained:
[1] = system: HEXIM1, a bona fide target of P-TEFb; test: HEXIM1 mRNA and protein expression in 293T cells; assay type: cell-based; details: increasing amounts of m:HT1
From the text: Since P-TEFb is a major transcription factor and regulates the expression of many cellular genes, we next assessed whether HT1 could impair host cell gene expression through inactivation of the kinase activity of CDK9. We first investigated how HT1 impacted the mRNA and protein expression levels of HEXIM1, a bona fide target of P-TEFb.

[2] = system: HIV reactivation in 2D10 cells; test: HIV reactivation in 2D10 latent infection model, FACS of GFP positive cells; assay type: cell-based; details: D-HT cells, 24 hrs
From the text: FIGS. 4A and 4B. Stable expression of HT1 inhibits HIV reactivation. FIG. 4A: Stable expression of HT1 inhibits HIV reactivation from 2D10 cells. 3f:HT1 was stably expressed in 2D10 cells (D-HT cells). […] Error bars represent standard deviation from triplicate FACS analysis. FIG. 4B: Stable expression of HT1 inhibits HIV reactivation from J-Lat 9.2 cells. 3f:HT1 was stably expressed in J-Lat 9.2 cells (L-HT cells). […] Error bars represent standard deviation from triplicate FACS analysis.
To test the effect of HT1 on HIV-1 in T-lymphocyte derived cells, 3f:HT1 was stably expressed in HIV latent infection models 2D10 and J-Lat 9.2 cells (D-HT and L-HT cells respectively), which carry replication-defective, GFP-flagged HIV proviruses. In both 2D10 and J-Lat 9.2, the basal HIV transcription level is undetectable, as measured through GFP expression. Compounds such as the PKC agonist PMA, the histone deacetylase inhibitor SAHA or the BET bromodomain inhibitor JQ1 reactivate HIV transcription and increase GFP-positive cells detected by FACS analysis. 2D10 cells are more sensitive to HIV reactivation than J-Lat 9.2 cells, though they harbor a mutation in the N-terminal sequence of Tat (H13L). 2D10 and D-HT cells were incubated for 24 hrs with PMA (10 nM), SAHA (5 μM) or JQ1 (1 μM) and GFP positive cells were detected by FACS analysis. PMA, SAHA and JQ1 reactivated HIV from 65%, 71% and 58% less D-HT cells than from control 2D10 cells, respectively. Due to the limited HIV reactivation by SAHA and JQ1 in J-Lat 9.2 cells, we only treated them with PMA (100 nM), which induced a 12% increase in GFP expression.

B1: HT1 (protein)
chain: KKKHRRRPSKKKRHWKPYYKLTWEEKKKFDEKQSLRASRIRAEMFAKGQPVAPYNTTQFLMDDHDQEEPDLVDMEPVDPYLEPWKHPGSQPRTACNNCYCKKCCFHCYACFTRKGLGISYG
modifications: left off: small tags and cut ends
What does the source list for B1?
expression level of HEXIM1 protein and mRNA [1]: did not change; fewer cells with reactivated HIV (GFP positive) than control 2D10 cells ([2]; JQ1 1 μM): 58%; fewer cells with reactivated HIV (GFP positive) than control 2D10 cells ([2]; PMA 10 nM): 65%; fewer cells with reactivated HIV (GFP positive) than control 2D10 cells ([2]; SAHA 5 μM): 71%
